Molecular target: the molecule itself
Test: SEC; Superose 6 Increase 10/300 GL, 4 °C, 0.5 mL/min, running buffer 50 mM potassium pyrophosphate, 500 mM NaCl, 5% glycerol, 0.1% Tween 20, pH 7.5; elution compared with molecular weight standards; fractions checked by ODC tandem assay, Coomassie staining and western blot

B1: C-terminal Twin-Strep-tagged recombinant human ornithine decarboxylase (ODC) (enzyme, UniProt P11926 1-461, looked up)
chain: MNNFGNEEFDCHFLDEGFTAKDILDQKINEVSSSDDKDAFYVADLGDILKKHLRWLKALPRVTPFYAVKCNDSKAIVKTLAATGTGFDCASKTEIQLVQSLGVPPERIIYANPCKQVSQIKYAANNGVQMMTFDSEVELMKVARAHPKAKLVLRIATDDSKAVCRLSVKFGATLRTSRLLLERAKELNIDVVGVSFHVGSGCTDPETFVQAISDARCVFDMGAEVGFSMYLLDIGGGFPGSEDVKLKFEEITGVINPALDKYFPSDSGVRIIAEPGRYYVASAFTLAVNIIAKKIVLKEQTGSDDEDESSEQTFMYYVNDGVYGSFNCILYDHAHVKPLLQKRPKPDEKYYSSSIWGPTCDGLDRIVERCDLPEMHVGDWMLFENMGAYTVAAASTFNGFQRPTIYYVMSGPAWQLMQQFQNPDFPPEVEEQDASTLPVSCAWESGMKRHRAACASASINV
notes: Cloning sites may add a few linker residues between ODC and the 3C site; also called human ODC; ODC1; source: Expi293F cells, transiently transfected, purified (Strep-Tactin chromatography, size-exclusion chromatography); not shown: Avi tag (preceded by an HRV 3C protease site), C-terminal, kept; Twin-Strep, C-terminal, kept
stoichiometry N: 2

— PMC9721421, “DMSO-tolerant ornithine decarboxylase (ODC) tandem assay optimised for high-throughput screening” (Journal of Enzyme Inhibition and Medicinal Chemistry, 2022)
